Each block holds one molecule with its values, some of them ahead of it.
Experiments:
[1] = Serum chemistry panel and liver histology of treated tumor-bearing mice; format: in vivo; settings: n=5 mice per treatment; FIG. 21
Experimental: In example studies, 0.5×10^6 to 1×10^6 4 T1 mouse mammary carcinoma cells were injected into the mammary fat pads of balb/c mice. Once the tumors were greater than 5 mm in diameter, mice were randomized and treated via tail vein catheter with PEMs (at 100 μL of 2.5 mg/mL Mb, corresponding to 50 mg/mL polymer suspensions), empty polymersomes (at equivalent polymer doses), and NIR-Mb (at equivalent myoglobin doses) (n=5 per group). NIR-Mb and PEM were reduced to their oxy-myoglobin form prior to treatment, following protocols discussed above. Mice were sacrificed at 24 h (for biodistribution/pharmacokinetic studies) or at 6-9 days (for histology and toxicology assessment following tumor efficacy studies). In both cases, EF-5 was used to stain for hypoxia and Hoechst solution for perfusion. Tumors were collected at sacrifice. Immunofluorescence (IF) was carried out to image EF-5 and Hoechst distribution throughout the tumors. The same tumor sections were also stained with hematoxylin and eosin (H&E) for immunohistologic (IHC) analysis. Blood was collected via cardiac puncture at sacrifice; plasma was isolated and stored at −80° C. for later analyses.
FIG. 21 provides results of a serum chemistry panel done for a set of tumor-bearing mice injected with each of the following treatments (n=5 mice per treatment): NIR-myoglobin (control), empty polymersomes (control), and PEMs. […]

[2] = Biodistribution/pharmacokinetics after IV injection in 4T1 tumor-bearing mice; format: in vivo, balb/c mice; settings: via the kidneys and into the bladder
Experimental: In example studies, 0.5×10^6 to 1×10^6 4 T1 mouse mammary carcinoma cells were injected into the mammary fat pads of balb/c mice. Once the tumors were greater than 5 mm in diameter, mice were randomized and treated via tail vein catheter with PEMs (at 100 μL of 2.5 mg/mL Mb, corresponding to 50 mg/mL polymer suspensions), empty polymersomes (at equivalent polymer doses), and NIR-Mb (at equivalent myoglobin doses) (n=5 per group). NIR-Mb and PEM were reduced to their oxy-myoglobin form prior to treatment, following protocols discussed above. Mice were sacrificed at 24 h (for biodistribution/pharmacokinetic studies) or at 6-9 days (for histology and toxicology assessment following tumor efficacy studies). […]
For all biodistribution studies, NIR imaging of polymersomes, NIR-Mb and PEM was conducted with an MS® Kinetic Imaging System (Perkin Elmer, AeX=745 nm, Aem=810-875 nm) equipped with a Xenogen XGI-8 gas anesthesia system. Fluorescence images were analyzed with Living Image® 4.2 software by measuring radiant efficiency of regions of interest (ROIs). […]
For the pharmacokinetic studies, 15-100 μL blood samples were drawn (using a 5.5 mm lancet, Goldenrod) from the submandibular vein of the mouse and collected directly into heparinized capillary tubes (Kimble). […] The total radiant efficiency of the plasma in each capillary tube was measured in a region of interest of consistent dimensions. […]

[3] = Oxygen equilibrium binding curves (Hemox Analyzer, Hill model); settings: partial pressure of O2 at 50% saturation; 37° C.
Experimental: Oxygen equilibrium binding curves of PEM and free Mb dispersions may be measured using a Hemox™ Analyzer at physiological temperature (37° C.). In brief, samples may be allowed to saturate to a pO2 of 147 mm Hg using compressed air and then deoxygenated using a compressed nitrogen stream. UV-Vis absorbance measurements of oxygenated and deoxygenated samples may be recorded as a function of pO2 via dual wavelength spectroscopy. Oxygen-PEM/myoglobin equilibrium curves may be fit to a four-parameter (A0, A∞, P50, n) Hill model:
in which A0 and A∞ represent the absorbance at 0 mm Hg and at full O2 saturation, respectively. The pO2 represents the partial pressure of O2, and P50 represents the partial pressure of O2 where PEM/Mb is 50% saturated with oxygen. Lastly, ‘n’ represents the cooperativity coefficient of PEM/Mb. […] The lower O2 affinity (higher P5o) of PEM than free myoglobin may be attributed to the shielding effect of the polymersome membrane, which was further found to delay the kinetics of O2 binding to PEM.

B1: NIR-Mb: near-infrared fluorophore (IRDye800cw NHS) covalently attached to the lysines on horse skeletal myoglobin; negative control (conjugate, UniProt P68082 2-154, looked up)
Myoglobin: GLSDGEWQQVLNVWGKVEADIAGHGQEVLIRLFTGHPETLEKFDKFKHLKTEAEMKASEDLKKHGTVVLTALGGILKKKGHHEAELKPLAQSHATKHKIPIKYLEFISDAIIHVLHSKHPGDFGADAQGAMTKALELFRNDIAAKYKELGFQG
modifications: IRDye800CW NHS on lysines
notes: near-infrared fluorophore (IRDye800cw NHS) covalently attached to the lysines on horse skeletal myoglobin; negative control
serum chemistry panel [1]: no consistently elevated levels for any parameter | plasma clearance [2]: extremely rapid plasma clearance

P50 [3]: ~2 mm Hg
B2: free Mb: free (unencapsulated) myoglobin, a cytoplasmic heme protein (protein, UniProt P02144 2-154, looked up)
Myoglobin: GLSDGEWQLVLNVWGKVEADIPGHGQEVLIRLFKGHPETLEKFDKFKHLKSEDEMKASEDLKKHGATVLTALGGILKKKGHHEAEIKPLAQSHATKHKIPVKYLEFISECIIQVLQSKHPGDFGADAQGAMNKALELFRKDMASNYKELGFQG

Source: patent publication US20170361126A1, “Compositions and Methods for Inducing Nanoparticle Mediated Microvascular Embolization of Tumors” (Vindico NanoBioTechnology, LLC, priority 2011, published 2017)
